Experimental data taken from patent US20140147453.

T1: MFK24 peptide (mdhFas-1-GPQGIAG-QERGDSLA) (UniProt P82198)
T1 sequence: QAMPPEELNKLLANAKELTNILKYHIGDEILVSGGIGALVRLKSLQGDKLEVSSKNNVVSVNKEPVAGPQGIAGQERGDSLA

T2: MFK25 peptide (mdhFas-1-GPLGIAG-QERGDSLA) (UniProt P82198)
T2 sequence: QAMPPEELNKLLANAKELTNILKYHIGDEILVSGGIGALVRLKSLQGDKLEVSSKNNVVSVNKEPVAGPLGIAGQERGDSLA

T3: MFK23 peptide (mdhFas-1-GPLGVRG-QERGDSLA) (UniProt P82198)
T3 sequence: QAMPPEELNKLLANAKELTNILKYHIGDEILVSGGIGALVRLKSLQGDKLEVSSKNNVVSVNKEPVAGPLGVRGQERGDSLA

T4: MFK24 peptide (mdhFas-1-GPQGIAG-QERGDSLA), P82198
T4 chain: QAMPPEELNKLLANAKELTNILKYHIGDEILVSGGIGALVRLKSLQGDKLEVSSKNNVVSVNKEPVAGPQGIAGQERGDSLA


Tests used:
[1] = biological target: T1, MFK24 peptide (mdhFas-1-GPQGIAG-QERGDSLA)
[2] = biological target: T2, MFK25 peptide (mdhFas-1-GPLGIAG-QERGDSLA)
[3] = biological target: T3, MFK23 peptide (mdhFas-1-GPLGVRG-QERGDSLA)
[4] = biological target: T4, MFK24 peptide …

Sequence of MMP-2 (matrix metalloproteinase 2) (P08253 110-660): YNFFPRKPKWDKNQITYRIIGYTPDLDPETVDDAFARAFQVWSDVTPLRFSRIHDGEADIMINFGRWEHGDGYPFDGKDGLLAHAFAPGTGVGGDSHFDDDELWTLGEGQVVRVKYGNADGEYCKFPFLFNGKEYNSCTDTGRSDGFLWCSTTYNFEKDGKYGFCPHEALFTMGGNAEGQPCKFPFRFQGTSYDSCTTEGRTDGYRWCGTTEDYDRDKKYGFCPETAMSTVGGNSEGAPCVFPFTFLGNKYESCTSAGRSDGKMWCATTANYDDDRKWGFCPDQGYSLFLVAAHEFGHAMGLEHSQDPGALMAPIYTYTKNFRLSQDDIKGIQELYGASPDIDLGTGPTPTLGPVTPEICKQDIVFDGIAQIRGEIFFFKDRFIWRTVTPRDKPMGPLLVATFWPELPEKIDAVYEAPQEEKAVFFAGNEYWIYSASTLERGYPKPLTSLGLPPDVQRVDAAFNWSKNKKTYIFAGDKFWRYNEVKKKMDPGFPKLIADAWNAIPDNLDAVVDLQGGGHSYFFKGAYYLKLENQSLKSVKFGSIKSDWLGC

| Molecule | enzymatic digestion test (immunoblot with anti-Histidine or anti-Bigh3) [1] | enzymatic digestion test (immunoblot with anti-Histidine or anti-Bigh3) [2] | enzymatic digestion test (immunoblot with anti-Histidine or anti-Bigh3) [3] | culture analysis of enzymatic digestion (human FLS + IL-1β, 1 uM peptide, 3 and 6 hours; immunoblot anti-histidine versus anti-βig-h3) [4] |
| --- | --- | --- | --- | --- |
| MMP-1 (matrix metalloproteinase 1) | MFK24 was concentration-dependently cleaved through treatment with MMP-1 | MFK25 was concentration-dependently cleaved through treatment with MMP-1, MMP-2 and MMP-3, and especially, well cleaved by MMP-1 and MMP-3 | – | – |
| MMP-2 (matrix metalloproteinase 2) | – | MFK25 was concentration-dependently cleaved through treatment with MMP-1, MMP-2 and MMP-3 | MFK23 was concentration-dependently cleaved through treatment with MMP-2 | – |
| MMP-3 (matrix metalloproteinase 3) | – | MFK25 was concentration-dependently cleaved through treatment with MMP-1, MMP-2 and MMP-3, and especially, well cleaved by MMP-1 and MMP-3 | – | – |
| cathepsin D | – | MFK25 was not cleaved through treatment with cathepsin K, L or D | MFK23 was not cleaved through treatment with cathepsin K, L or D | – |
| cathepsin L | – | MFK25 was not cleaved through treatment with cathepsin K, L or D | MFK23 was not cleaved through treatment with cathepsin K, L or D | – |
| MMP-1 secreted from a human Synovial membrane cell (human FLS stimulated with IL-1β) (protein) FPATLETQEQDVDLVQKYLEKYYNLKNDGRQVEKRRNSGPVVEKLKQMQEFFGLKVTGKPDAETLKVMKQPRCGVPDVAQFVLTEGNPRWEQTHLTYRIENYTPDLPRADVDHAIEKAFQLWSNVTPLTFTKVSEGQADIMISFVRGDHRDNSPFDGPGGNLAHAFQPGPGIGGDAHFDEDERWTNNFREYNLHRVAAHELGHSLGLSHSTDIGALMYPSYTFSGDVQLAQDDIDGIQAIYGRSQNPVQPIGPQTPKACDSKLTFDAITTIRGEVMFFKDRFYMRTNPFYPEVELNFISVFWPQLPNGLEAAYEFADRDEVRFFKGNKYWAVQGQNVLHGYPKDIYSSFGFPRTVKHIDAALSEENTGKTYFFVANKYWRYDEYKRSMDPGYPKMIAHDFPGIGHKVDAVFMKDGFFYFFHGTRQYKFDPKTKRILTLQKANSWFNCRKN | – | – | – | in the use of the anti-histidine antibody, MFK24 was measured in a smaller amount than that in the use of the anti-βig-h3 antibody |
| cathepsin K (enzyme, UniProt P43235 115-329, looked up, species assumed) Cathepsin K: APDSVDYRKKGYVTPVKNQGQCGSCWAFSSVGALEGQLKKKTGKLLNLSPQNLVDCVSENDGCGGGYMTNAFQYVQKNRGIDSEDAYPYVGQEESCMYNPTGKAAKCRGYREIPEGNEKALKRAVARVGPVSVAIDASLTSFQFYSKGVYYDESCNSDNLNHAVLAVGYGIQKGNKHWIIKNSWGENWGNKGYILMARNKNNACGIANLASFPKM | – | MFK25 was not cleaved through treatment with cathepsin K, L or D | MFK23 was not cleaved through treatment with cathepsin K, L or D | – |
